# From patent US20260250396A1 (TRUEBINDING, published 2026)
# B1: TB006 (antibody, human IgG4 S228P, kappa, V domains shown)
# VH: QVQLVQSGAEVKKPGASVKVSCKASGYSFTNYYMHWVRQAPGQRLEWMGWIYPGSGNTNYNEKFQGRVTITADTSASTAYMELSSLRSEDTAVYYCSTAPGGFDVWGQGTTVTVSS
# VL: DIVMTQTPLSLSVTPGQPASISCKSSKSLLHSDGITYLYWYLQKPGQSPQLLIYRMSNLASGVPDRFSGSGSGTDFTLKISRVEAEDVGVYYCAQMLEFPLTFGQGTKLEIKR
# notes: also called anti-Gal3 antibody; humanized IgG4 (S228P) type monoclonal antibody
# Molecular target: T1, human Galectin-3 (human, UniProt P17931 1-250, limits assumed)
# T1 construct: also called Gal-3; Gal3
# T1 sequence (P17931 whole entry): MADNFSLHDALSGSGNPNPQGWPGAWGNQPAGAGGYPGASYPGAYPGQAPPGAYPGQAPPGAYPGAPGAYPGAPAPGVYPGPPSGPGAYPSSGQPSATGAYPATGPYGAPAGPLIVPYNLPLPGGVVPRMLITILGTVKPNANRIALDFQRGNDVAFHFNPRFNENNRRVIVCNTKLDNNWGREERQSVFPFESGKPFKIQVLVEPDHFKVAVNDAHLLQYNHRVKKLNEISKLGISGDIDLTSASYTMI
# Test: in vitro affinity; method and format not stated
binder,measurement,value
B1,Kd,8.4 nM
